# Test results: patent US20210162028A1, “Methods for Inducing Intermittent Fasting and Modulating Autophagy” (The Hong Kong Polytechnic University, priority 2019, published 2021)
# B1: PEGylated His-rhArg: PEGylated His-tagged recombinant human arginase (SEQ ID NO: 101) (protein)
# chain: MHHHHHHMSAKSRTIGIIGAPFSKGQPRGGVEEGPTVLRKAGLLEKLKEQECDVKDYGDLPFADIPNDSPFQIVKNPRSVGKASEQLAGKVAEVKKNGRISLVLGGDHSLAIGSISGHARVHPDLGVIWVDAHTDINTPLTTTSGNLHGQPVSFLLKELKGKIPDVPGFSWVTPCISAKDIVYIGLRDVDPGEHYILKTLGIKYFSMTEVDRLGIGKVMEETLSYLLGRKKRPIHLSFDVDGLDPSFTPATGTPVVGGLTYREGLYITEEIYKTGLLSGLDIMEVNPSLGKTPEEVTRTVNTAVAITLACFGLAREGNHKPIDYLNPPK
# modifications: PEGylated; His-rhArg, Synthesized in Lab
# B2: ADI-ABD: arginine deiminase fused with albumin binding domain (SEQ ID NO: 107) (protein)
# chain: MHHHHHHDEAVDANSLAEAKVLANRELDKYGVSDYYKNLINNAKTVEGVKALIDEILAALPSGSNNNNNNGSGGSVFDSKFKGIHVYSEIGELESVLVHEPGREIDYITPARLDELLFSAILESHDARKEHKQFVAELKANDINVVELIDLVAETYDLASQEAKDKLIEEFLEDSEPVLSEEHKVVVRNFLKAKKTSRELVEIMMAGITKYDLGIEADHELIVDPMPNLYFTRDPFASVGNGVTIHYMRYKVRQRETLFSRFVFSNHPKLINTPWYYDPSLKLSIEGGDVFIYNNDTLVVGVSERTDLQTVTLLAKNIVANKECEFKRIVAINVPKWTNLMHLDTWLTMLDKDKFLYSPIANDVFKFWDYDLVNGGAEPQPVENGLPLEGLLQSIINKKPVLIPIAGEGASQMEIERETHFDGTNYLAIRPGVVIGYSRNEKTNAALEAAGIKVLPFHGNQLSLGMGNARCMSMPLSRKDVKW
# modifications: ADI-ABD, Synthesized in the Lab
# B3: BAH: arginase-ABD fusion protein, SEQ ID NO: 76 (protein)
# chain: MKPISIIGVPMDLGQTRRGPDMGPSAMRYAGVIERLERLHYDIEDLGDIPIGKAERLHEQGDSRLRNLKAVAEANEKLAAAVDQVVQRGRFPLVLGGDHSIAIGTLAGVAKHYERLGVIWYDAHGDVNTAETSPSGNIHGMPLAASLGFGHPALTQIGGYCPKIKPEHVVLIGVRSLDEGEKKFIREKGIKIYTMHEVDRLGMTRVMEETIAYLKERTDGVHLSLDLDGLDPSDAPGVGTPVIGGLTYRESHLAMEMLAEAQIITSAEFVEVNPILDERNKTASVAVALMGSLFGEKLMAQHDEAVDANSLAEAKVLANRELDKYGVSDYYKNLINNAKTVEGVKALIDEILAALPHHHHHH
# modifications: BAH Fusion Protein, Synthesized in the Lab
# B4: N-ABD094-rhArg-Co^2+: SEQ ID NO: 50 (cobalt substituted); Mn^2+ substituted with Co^2+ in the ABD-rhArg fusion protein (protein)
# chain: MHHHHHHDEAVDANSLAEAKEAANAELDSYGVSDFYKRLIDKAKTVEGVEALKDAILAALPSGSNNNNNNGSGGMSAKSRTIGIIGAPFSKGQPRGGVEEGPTVLRKAGLLEKLKEQECDVKDYGDLPFADIPNDSPFQIVKNPRSVGKASEQLAGKVAEVKKNGRISLVLGGDHSLAIGSISGHARVHPDLGVIWVDAHTDINTPLTTTSGNLHGQPVSFLLKELKGKIPDVPGFSWVTPCISAKDIVYIGLRDVDPGEHYILKTLGIKYFSMTEVDRLGIGKVMEETLSYLLGRKKRPIHLSFDVDGLDPSFTPATGTPVVGGLTYREGLYITEEIYKTGLLSGLDIMEVNPSLGKTPEEVTRTVNTAVAITLACFGLAREGNHKPIDYLNPPK
# modifications: Co2+ substituted for Mn2+; N-ABD094-rhArg, Synthesized in the Lab
# notes: Mn^2+ substituted with Co^2+ in the ABD-rhArg fusion protein
# B5: BHA: arginase-ABD fusion protein, SEQ ID NO: 75 (protein)
# chain: MKPISIIGVPMDLGQTRRGPDMGPSAMRYAGVIERLERLHYDIEDLGDIPIGKAERLHEQGDSRLRNLKAVAEANEKLAAAVDQVVQRGRFPLVLGGDHSIAIGTLAGVAKHYERLGVIWYDAHGDVNTAETSPSGNIHGMPLAASLGFGHPALTQIGGYCPKIKPEHVVLIGVRSLDEGEKKFIREKGIKIYTMHEVDRLGMTRVMEETIAYLKERTDGVHLSLDLDGLDPSDAPGVGTPVIGGLTYRESHLAMEMLAEAQIITSAEFVEVNPILDERNKTASVAVALMGSLFGEKLMHHHHHHAQHDEAVDANSLAEAKVLANRELDKYGVSDYYKNLINNAKTVEGVKALIDEILAALP
# modifications: BHA Fusion Protein, Synthesized in the Lab
# Experiments:
# [1] = Glucose tolerance test (GTT); assay type: in vivo, mouse; settings: DIO C57BL/6J male mice on HFD; about 250 U once a week; at 6 week
# [2] = Daily food intake / 7-day intermittent fasting cycle in mice; assay type: in vivo, mouse
# Description: One of the most noticeable effects of intermittent fasting is reduction of bodyweight. […] Specifically, C57BL/6J, which is the most commonly used mouse strain for polygenic obesity model, was used in the study. It is well-reported that C57BL/6J male mice feeding on a high-fat diet will have prominent weight gain, become obese and develop hyperinsulinemia, hyperglycemia, impaired glucose tolerance and insulin resistance [Gallou-Kabani et al., 2007, Obesity 15(8):1996-2005]. Obesity was induced in C57BL/6J male mice via feeding ad libitum a high-fat diet containing 60 kcal % fat (HFD; Research Diets, D12492) for 12-14 weeks starting from 5-week old. These mice are referred as diet-induced obese (DIO) mice. DIO mice were stratified according to bodyweight into 2 groups. […] Both groups of mice continued to feed ad libitum on the HFD throughout the treatment period. One group of age-matched C57BL/6J male mice feeding ad libitum on an ordinary rodent chow diet (CD; LabDiet, 50IF/6F) and injected with vehicle served as the lean control [CD (vehicle) group]. Food intake and bodyweight of mice were measured daily. […] DIO mice were injected with rhArg on Day 0, which was Day 7 of the previous cycle. Similarly, Day 7 of the cycle shown in FIG. 1B was Day 0 of the next cycle. […] Bodyweight gain is one of the biomarkers related to aging.
# C57BL/6J male mice were fed a high-fat diet from 5-week old for 12 weeks. They were then stratified into 3 groups according to their bodyweight and individually caged: (i) one group of mice received i.p. injection of 600 U N-ABD094-rhArg (SEQ ID NO: 50) once a week [HFD (rhArg) group] and was fed ad libitum the HFD for 5 weeks; (ii) one group of mice received i.p. injection of saline once a week, and was fed a predetermined amount of HFD on each day to artificially create a 7-day intermittent fasting cycle that mimics the pattern of food intake of mice administered once a week with rhArg [HFD (artificial IF) group)]; (iii) one group of mice was injected with saline once a week and was fed ad libitum the HFD [HFD (vehicle) group].
# [3] = Bodyweight of treated mice; assay type: in vivo, mouse
# [4] = Fat pad and organ mass at end of treatment; assay type: in vivo, mouse; settings: DIO C57BL/6J male mice on HFD; about 250 U once a week, 8 weeks
# [5] = Insulin tolerance test (ITT); assay type: in vivo, mouse; settings: DIO C57BL/6J male mice on HFD; about 250 U once a week; at 7 week
# Description: In terms of reversing insulin resistance on pre-existing obese mice, insulin tolerance test (ITT) was employed (FIG. 59).
# In terms of reversing insulin resistance on pre-existing obese mice, insulin tolerance test (ITT) was employed (FIG. 68A).
# [6] = Half-life / therapeutic duration in circulation; design: species or system mice; settings: mouse, in vivo
# Description: As used herein, the term “half-life” or “½-life” refers to the time that would be required for the concentration of an agent, e.g., a fusion protein or arginine depleting agent as described herein, to fall by half in vitro or in vivo, for example, after injection into a mammal. In certain instances, the concentration of plasma arginine, after injection, is used herein as a proxy indicator of the half-life of the agent. In such instances, the term “therapeutic duration” is used to refer to the length of time a specified dosage of the arginine depleting agent is able to maintain the plasma concentration of arginine below a specified threshold concentration that a desired therapeutic effect is observed. In certain embodiments, the threshold concentration of plasma arginine is below 50 μM, below 40 μM, below 30 μM, below 20 μM, below 10 μM, below 5 μM, below 3 μM, or at a concentration below the detection limit of conventional analytical instrumentation.
# Importantly, the present invention used a new ABD fusion approach to join an ABD and an arginase together so that arginase activity can be retained. Stable and soluble arginase-ABD fusion molecules that can bind to FcRn in a pH-dependent manner were successfully generated, allowing for efficient endosomal recycling. […] Taken together, a variety of different approaches are available for fine-tuning the pharmacokinetic properties of arginases, ensuring appropriate residence time in circulation for different disease conditions. Another key issue in the development of any therapeutic protein is to minimize immunogenicity to avoid adverse effects. Thus, the observed low immunogenicity of human arginase and the successful deimmunization of ABD (e.g. ABD094), which was also used in the present disclosure as gene fusion partner to extend the in vivo half-life, are important.
# [7] = DIO C57BL/6J male mice on HFD, about 250 U i.p. once a week, 8 weeks
# [8] = DIO C57BL/6J male mouse on HFD, 50 U i.p. once a week, 2 weeks, n=1
molecule,measurement,setting,value
B1,Glucose tolerance in GTT,[1],significantly improved glucose tolerance
same,Pattern of food intake (intermittent fasting cycles),[2]; [7],repetitive 7-day intermittent fasting cycles
same,"Total food intake per week, less than HFD (vehicle) group",[2]; [7],about 28%
same,Bodyweight reached under treatment,"[3]; DIO C57BL/6J male mice on HFD, about 250 U i.p. once a week, from 50 g within 8 weeks",30 g
same,"Fat pad mass (perirenal, inguinal WAT, interscapular BAT) and liver mass",[4],dramatically reduced to a weight similar to that of the vehicle-treated lean control mice
same,Kidney and heart mass,[4],significantly reduced
same,Insulin sensitivity in ITT,[5],marked increase in insulin sensitivity
B2,Time of minimum level of food intake in the cycle,"[2]; DIO C57BL/6J male mice on HFD, i.p. once a week",after the first day
same,Pattern of food intake (intermittent fasting cycle),"[2]; DIO C57BL/6J male mouse on HFD, 5 U i.p. once a week, 2 weeks, n=1",induce a 7-day intermittent fasting cycle
same,Bodyweight reached under treatment,"[3]; DIO C57BL/6J male mouse on HFD, 5 U i.p., first cycle, from 47 g in 2 days, n=1",about 44 g
B3,Therapeutic duration (and half-life),[6],surprisingly high therapeutic duration (and half-life)
B4,Length of fasting period in the 7-day intermittent fasting cycle,[2]; [8],4 days
same,Pattern of food intake (intermittent fasting cycle),[2]; [8],induce a 7-day intermittent fasting cycle
same,Bodyweight reached under treatment,"[3]; DIO C57BL/6J male mouse on HFD, 50 U i.p. once a week, from 45 g within 2 weeks, n=1",32 g
B5,Therapeutic duration (and half-life),[6],surprisingly high therapeutic duration (and half-life)
